The source of these data is IntAct's records for PubMed 17588514.

The labels stand for the following.
B1: Replication restart protein PriB (Escherichia coli (strain K12)), P07013 (parent)
chain: MTNRLVLSGTVCRAPLRKVSPSGIPHCQFVLEHRSVQEEAGFHRQAWCQMPVIVSGHENQAITHSITVGSRITVQGFISCHKAKNGLSKMVLHAEQIELIDSGD
partner: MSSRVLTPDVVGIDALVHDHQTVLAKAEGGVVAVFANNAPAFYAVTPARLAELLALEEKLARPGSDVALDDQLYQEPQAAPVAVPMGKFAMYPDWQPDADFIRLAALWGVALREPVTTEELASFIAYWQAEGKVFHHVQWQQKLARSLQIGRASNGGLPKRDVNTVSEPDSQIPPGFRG

The test covers variants of B1. As to conditions: with dnat_ecoli dnaT.
With W47A;K82A, the “effect of a mutation on the interaction” value is recorded as “decreasing interaction”. In the case of Q45A, the “effect of a mutation on the interaction” value is given as “increasing interaction”.
